A protein production outcome set (Wang et al. 2014)

Assay: label from the status in PepcDB records

Sequence | protein production
MVRHRGNKEERQQALRRYLRSNPFATDEELAEKFEVSVPTIRLDRLALGIPEVRERIMAMAQEARSRMRGVTAEELVGELVELQPGVMGISILEITPPMLVQPAGVARGYYLFAQAHSLALATVGAEVVLTSSARVRYRRPVYAGERVVARAMVKVVKDSTCLVSVHSRVNGEIVFKGRYIIITPDAATGGGSA | failed
MIETPSLVDQYCHGVLRTELGLGTFEAQLARTEGPPAPGTTLFDTQTGFAVRRWCPPLLGLEPHCPPARYLARRRELGVMEADRRLLRGSGITTYLVDAGLPGDLTGPTEMATAADADTREIVRLELLAEQVADTSGTVESFLANLAEAVHGAAVNAVAFTSVAGVRHGLALAPEPPGPGEVRGAAARWLTGREVGGELSDPVLLRHLLWIAVASGLPLQLHAGLGEPGLRIDRTDPVLLTDFVRTTAGLGTDLVLLHGYPYHRHAAHLAGVFPHVYADSGAALVRTGARAATVLAEILELAPFGKILFSSGAQGLPELHVVAARLFREALGRVLGTWVAEGAWSPGDAQRVAAMIASGNAARVYGLE | failed
MKDSMFLYEFDLFRYSKDLTALSFLLLIGSSLTVHWVSLSMSSSRDLLHYLVLPLILVVILHEGLHALTAKLSGAKTSLGVLTKYGIILAVYVGINTPLPVKKIRYITIAPIIISIVAFFFSWVTYSPFWAILYIFNTTGIVGDLIVFLVLSKMPSDAIVVDEGTIMKSNAEFPEPYPSWFSKLIIGLAVLVFLYILTNIRIEFEVVGTLPNQTMPVNSHFE | failed
MRNHPLGIYEKALAKDLSWPERLVLAKSCGFDFVEMSVDETDERLSRLEWTSAQRASLVSAMLESGVAIPSMCLSAHRRFPFGSRDEAVRQRAREIMTKAIRLARDLGIRTIQLAGYDVYYEEHDEGTRQRFAEGLAWAVEQAAAAQVMLAVEIMDTAFMNSISKWKKWDEMLSSPWFTVYPDVGNLSAWGNDVTAELKLGIDRIAAIHLKDTLPVTGDSPGQFRDVPFGEGCVDFVGIFKTLHELNYRGSFLIEMWTEKSSEPVLEIIQARRWIESRMQEGGFTC | failed
MAAEPLTELEESIETVVTTFFTFARQEGRKDSLSVNEFKELVTQQLPHLLKDVGSLDEKMKSLDVNQDSELKFNEYWRLIGELAKEIRKKKDLKIRKK | not failed
MIDFTKSKQYTLSIRLSTDGFSFSIYNPINDNSQSLFEKEVDTSLSLTANLKNVFHESDFLSYSYKRVNIMIASKRFTMIPLELFEEEQAELLFYHNHQKRENEIVMYNILKKNNVVIIFGIDKSTYTFLNEQYPEARFYSQSTPLIEYFSIKSRLGNSKKMYASVRKDAIDIYCFERGQLLLANSFECMQTEDRIYYLLYVWKQLEFNQERDELHLTGTLSDKETLMNELKKFILQVFIMNPANNIDMQALLTCE | not failed
MNHDLLTNNPLLIVSAIFVFFILLEIACSAFGQPRGQRRDVLIEAVGSSLLLGVTFPLVMWASGALMQLSLPEAKGALAQIPWVLGLLLFLVFDDMTQYWWHRLTHRVPALYALHRAHHSAPYMSIRIVYRNNSFYYLLMPGIWFSGVLIYLGLAPVYYGYLILKMTVIFAAHSSVAWDDKLYRIGFLRPLMWLLERVFSTPSTHSAHHGLSAEDGVTHYKGNFGNLLFLWDVLFGTAKITRRRPVAYGIEHLAPVSWTQELFWPLVRSRKARASAVARVEGALPANPASQG | failed
MSDQPRPTVIITGASSGVGLYATKALANRGWHVIMACRNLEKAEQAAKNLQIPPEAYTILHLDLSSLASVRGFVESFRALNRPLRALVCNAAVYYPLLKEPIYSVDGYEITVATNHLGHFLLINLLLEDLKNSPESDKRLVILGTVTANRKELGGKIPIPAPPDLGNLEGFEKGFKKPIAMINGKPFKSGKAYKDSKLCNMLTARELHRRFHESTGIVFNSLYPGCVADTPLFRHHFPLFQKLFPLFQKKITGGYVSQELAGERVAMVVADPEFRQSGVHWSWGLEHHHHHH | not failed
MRTTAAEEAGLETETARRRFSRASLVNVAGNAVKILVEGAVGLAFGSVALLADAAHSVADLVASAVVLVWGRSVYTDPDENHPHGHQRVEPLAALFVGSLIVLLGLNLFYESATGLVAGPEVQFHPLLVGALLFAMADMYLLYWYTTHINESVGSSALEALAIDCRNDIYTTIAALCGVIGVFFGYPLFDAVAGGLVSVLVVYQGFEISRENVSYLVGASPSDQQRQRVVETLTDHPAVHGAHDVAVFYDGTDIEVEAHVEVDGELTLVEAHDIETELVSALRSLESVGDVHLHLDPAGIGEWKDAAVNEQRGPETQTGSPKQ | failed
MRTDFNVFTTGGAPMKQIIRQFSIGTVAYAIMQVASAQVAITNVVPMNIPGQGTEIRVMFNGLPPQPQAYQLEQPARLILDFDKAGQKLAKSLIPVTTNEASSIDVSSDDKRARVVVNLKDAGAFTTRVEGNVFILKINNIQSTATPVATSAPAPQQGIGNIGFQRGAQGEGLVVIDLQGTNTPVDVQQQGSKVVVRFPGIKIPTHLARRLNTTDFATPVASIDSYNDGSNGVISIQSTGSYEYMAYQAENKLTISLKRPQDNVRLNSKNNQNYTGKKISLDFQDIEVRRVLQLLADFTNINMVTADSVQGNITLHLKDVPWDQALDIILKTKNLDKRRNGNVIWIAPVSELIKSEEDEAKAIAQSTKLAPLQTEYILLKYAKAADIEKLITQGRNSGTSNSNTNGSATVEPLGDSVGTLLSPRGTISLDPRTNTLIINDTSQKIDQIRKMIDLLDIPVKQVMIEARIVRATTSFSKEMGVKWGILSQGINQNSNLLVGGSETTLWNLRNPDSNGTYTIERPDNLNVDLGVTTTGASSIAFGLISLSDFMLDLELSALQADGYGEVISTPKVMSADKQKAKVATGVEVPYQSTTNSAAGSTATTSFKEALLSLEVTPNITPDGKILMELNIANDSINSYAQNGEAILNKNTINTNVLVNNGETVVLGGVFEQTTNNAVTKVPFLGDLPYVGRLFKKTAKSEAKNELLIFVTPRIVNDTIVGNH | failed
MKAIIMAGGEGSRLRPLTCKRPKPLVPVANRPVMEYCVDLLRELGIKEVGVTLQYLPQLIEEYFGDGSDFGLHLHYFVEDKPLGTAGSVKNAAAILDETFVVVSGDALTDFDLRPAIARHKESGALATLVLTAVDNPLEYGVVITNPDGSIRSFLEKPSWGEVFSDRVNTGIYILEPEVLELIPEGRPFDFSKDLFPRLLKEKRPLYGVTLSGYWCDIGNLTQYRQAQEDILRGRVKVRVVGQDKGGGVVMGEGVEIAPGARIEGPVLIGGACHIATGAVVGPFTVLGPYTRVEEGATVRRSVLWDNVYTGEGANVRGAVVCSRASLQRRVQVYEGAVIGDGTQVDAGAEVRPEVKVWPEKTLGRETVVHESLIWGRGVARPLFVGSQAPGYLHGDLTPFQVTRLGMAYGASFPPGTTVGLSTFAGGAGEMLYKALAAGLMAAGVQVADLGRLLTPIHRFAVRSLGLDGGCHIKRDAAERDKVWLHLVNSRGHDLNPAAVRKIENLYWREDGRRVQEVPASIYFPGLEGAYRDWLLATLGDHGLKKRALRVALGGQGQVAGVAGTILQDAGAEVIRLDLDPAKTWQAVQEDLPYFAGEIRRYGADLGAALDSNGEELILFTGEGRRVAPAQQMTLLARVYLETHRGASLVLPVTAPRVLEQVAGGLHGRVERVKGHPGIYHEAMARADGETALGQQHLQLDALAALVHILDWLASREESLDSAVAALPPVYTASRTVACPWEAKGRVMRTLISEEPADGVELLDGVQVRHGKGWSLVLPDGETPHYHIYSEAFSQEAAEELAGFYEERLKELIAREKSKGR | failed
DSSMKTDVVEHDKDYVVTAELPGFKKDDIHVDYHDETLRISGKTEVNQSAKDDDGRILRQERRSQNVARSFYLPGIDLKNVKATYADGILTLTLPKQTEVDGSHEISID | failed
MIITQGPQFQGKASKRLHVMAKPIGAVCNIDCSYCYYLSKEDLLEYKKGCSPQMDDETLETYIRQYIEGQNTPEIIFSWQGGEPTLLGLDYFKKIVEFQKKYQPEGILISNDLQTNGTLLTDKWCEFLAENNFLVGLSIDGPEMLHNAYRTNKAGRGTFKQVMNAVELLHKHNVKFATLTCVNNLTSRNPLEVYRFLRDV | failed
MLRSTVIVTAHRRKAFIKDAIESVMENSLKPTEIIVVKNFKDYQIDSFLETYHVKNIYTDDETLGGKISLGIYQSSGDILFFLDDDDLFSKDKIREVIYKFSKYDIGFYHNAQEVIHNKLTGSNLSTDNQRFMYYTSIDTRRLKELLYKFKAGFNGSSIVISRDLAMRCVDLLKNVNISVDTFLLFCAVENNLPIMIDFRKLTYYRIIMSQNSNTEVNDKLFKMLYEDALYFKQIFSSKALRDFIEMSIIQHDFLYKIISKKEISKRDALISMVKMLRYSLKYPNKWNFFLQGLSLLSVFSAEKSRSLYLKKVRSNSMLSILEHHHHHH | not failed
